Experiments:
[1] = target: T1, recombinant monomeric cynomolgus monkey TIGIT-His (cynomolgus monkey); test: BLI (Octet QKe), SEC1 on AMC sensor, cynomolgus monkey TIGIT-His in solution
T1 construct: also called Cyno TIGIT His; cTIGIT; not shown: His tag

[2] = target: T2, recombinant monomeric mouse TIGIT-His (SEQ ID NO: 3) (mouse, UniProt P86176 29-148); test: BLI (Octet QKe), SEC1 on AMC sensor, mouse TIGIT-His 33 to 1.22 nM, 1:1 global fit
T2 construct: also called mTIGIT; not shown: His tag
T2 sequence: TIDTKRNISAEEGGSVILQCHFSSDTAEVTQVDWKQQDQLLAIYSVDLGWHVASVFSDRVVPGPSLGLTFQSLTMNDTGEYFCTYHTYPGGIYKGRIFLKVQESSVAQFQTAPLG

[3] = target: T3, recombinant monomeric human TIGIT-His (human, UniProt Q495A1 22-141); test: BLI (Octet QKe), SEC1 on AMC sensor, human TIGIT-His 33.8 to 1.25 nM, 1:1 global fit
T3 construct: also called hTIGIT; not shown: His tag
T3 sequence: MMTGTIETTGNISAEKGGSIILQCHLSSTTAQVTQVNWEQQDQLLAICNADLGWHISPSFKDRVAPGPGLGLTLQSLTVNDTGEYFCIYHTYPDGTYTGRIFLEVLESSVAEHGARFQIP

[4] = target: T4, mouse TIGIT on primary murine Tregs (mouse, UniProt P86176 29-249); test: flow cytometry on primary murine Tregs, average
T4 construct: whole, on cells; also called Mouse Tregs
T4 sequence (looked up): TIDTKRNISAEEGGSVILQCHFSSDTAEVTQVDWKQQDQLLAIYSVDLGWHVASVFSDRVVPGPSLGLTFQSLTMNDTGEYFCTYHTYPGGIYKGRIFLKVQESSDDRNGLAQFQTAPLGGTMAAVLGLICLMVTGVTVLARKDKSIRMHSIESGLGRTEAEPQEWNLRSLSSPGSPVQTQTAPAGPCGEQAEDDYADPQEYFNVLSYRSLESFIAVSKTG

[5] = target: T5, human TIGIT on the cell surface (human, UniProt Q495A1 22-244); test: flow cytometry on human primary CD8+ T cells
T5 construct: Expressed on engineered Jurkat cells or naturally on human primary CD8+ T cells (the cells are named under assay); also called Human TIGIT Jurkat; human TIGIT expressing Jurkat cells
T5 sequence: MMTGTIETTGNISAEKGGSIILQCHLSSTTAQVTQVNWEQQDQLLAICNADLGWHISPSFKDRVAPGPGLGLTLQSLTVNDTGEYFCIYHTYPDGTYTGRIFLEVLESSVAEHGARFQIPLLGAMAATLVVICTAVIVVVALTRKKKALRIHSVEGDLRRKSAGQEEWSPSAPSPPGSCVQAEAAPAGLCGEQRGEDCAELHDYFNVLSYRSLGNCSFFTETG

[6] = target: T6, cynomolgus monkey TIGIT on the cell surface (cynomolgus monkey); test: flow cytometry on cynomolgus monkey primary CD8+ T cells
T6 construct: Expressed on engineered Jurkat cells or naturally on cynomolgus monkey primary CD8+ T cells (the cells are named under assay); also called Cynomolgus Monkey TIGIT Jurkat; Cynomolgus Monkey CD8
T6 sequence (chain, as listed by the source limits assumed): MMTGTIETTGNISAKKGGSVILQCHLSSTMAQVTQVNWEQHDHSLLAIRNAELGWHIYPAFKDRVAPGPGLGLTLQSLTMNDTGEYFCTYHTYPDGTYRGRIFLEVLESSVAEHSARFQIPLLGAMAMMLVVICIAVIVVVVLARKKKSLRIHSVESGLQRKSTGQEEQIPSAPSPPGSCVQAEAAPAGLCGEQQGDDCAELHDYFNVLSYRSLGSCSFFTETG

T1 sequence (chain, as listed by the source limits assumed): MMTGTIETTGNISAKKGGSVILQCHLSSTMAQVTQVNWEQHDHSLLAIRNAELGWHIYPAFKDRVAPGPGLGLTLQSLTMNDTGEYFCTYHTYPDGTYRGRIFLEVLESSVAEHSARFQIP

B1: SEC1 mouse IgG2a N297A (antibody)
heavy: EVQLVESGGGLTQPGKSLKLSCEASGFTFSSFTMHWVRQSPGKGLEWVAFIRSGSGIVFYADAVRGRFTISRDNAKNLLFLQMNDLKSEDTAMYYCARRPLGHNTFDSWGQGTLVTVSSAKTTAPSVYPLAPVCGDTTGSSVTLGCLVKGYFPEPVTLTWNSGSLSSGVHTFPAVLQSDLYTLSSSVTVTSSTWPSQSITCNVAHPASSTKVDKKIEPRGPTIKPCPPCKCPAPNLLGGPSVFIFPPKIKDVLMISLSPIVTCVVVDVSEDDPDVQISWFVNNVEVHTAQTQTHREDYASTLRVVSALPIQHQDWMSGKEFKCKVNNKDLPAPIERTISKPKGSVRAPQVYVLPPPEEEMTKKQVTLTCMVTDFMPEDIYVEWTNNGKTELNYKNTEPVLDSDGSYFMYSKLRVEKKNWVERNSYSCSVVHEGLHNHHTTKSFSRTPGK
light: DIVMTQSPSSLAVSPGEKVTMTCKSSQSLYYSGVKENLLAWYQQKPGQSPKLLIYYASIRFTGVPDRFTGSGSGTDYTLTITSVQAEDMGQYFCQQGINNPLTFGDGTKLEIKRADAAPTVSIFPPSSEQLTSGGASVVCFLNNFYPKDINVKWKIDGSERQNGVLNSWTDQDSKDSTYSMSSTLTLTKDEYERHNSYTCEATHKTSTSPIVKSFNRNEC
notes: also called SEC1 IgG2a N297A
[1]
  binding result: no binding (tested: 302.8 to 0.42 nM)
[2]
  Kd: 0.32 nM
  koff: 0.0006 s⁻¹
  kon: 1.9e+06 M⁻¹ s⁻¹
[3]
  Kd: 4.7 nM
  koff: 0.0079 s⁻¹
  kon: 1.7e+06 M⁻¹ s⁻¹

B2: SEC1 human IgG4 S228P (antibody)
heavy: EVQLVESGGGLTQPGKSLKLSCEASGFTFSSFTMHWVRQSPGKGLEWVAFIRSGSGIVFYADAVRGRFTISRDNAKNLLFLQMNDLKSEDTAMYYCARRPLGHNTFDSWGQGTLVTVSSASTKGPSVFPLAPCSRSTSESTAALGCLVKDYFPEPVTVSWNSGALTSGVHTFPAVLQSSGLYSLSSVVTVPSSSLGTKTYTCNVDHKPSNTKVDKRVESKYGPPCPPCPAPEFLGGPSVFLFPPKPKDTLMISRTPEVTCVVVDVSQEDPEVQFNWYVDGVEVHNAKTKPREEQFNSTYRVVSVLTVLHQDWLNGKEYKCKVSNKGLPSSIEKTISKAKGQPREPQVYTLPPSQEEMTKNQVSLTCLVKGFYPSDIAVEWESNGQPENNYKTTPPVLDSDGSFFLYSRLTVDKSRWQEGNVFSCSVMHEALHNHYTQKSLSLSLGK
light: DIVMTQSPSSLAVSPGEKVTMTCKSSQSLYYSGVKENLLAWYQQKPGQSPKLLIYYASIRFTGVPDRFTGSGSGTDYTLTITSVQAEDMGQYFCQQGINNPLTFGDGTKLEIKRTVAAPSVFIFPPSDEQLKSGTASVVCLLNNFYPREAKVQWKVDNALQSGNSQESVTEQDSKDSTYSLSSTLTLSKADYEKHKVYACEVTHQGLSSPVTKSFNRGEC
notes: Chimeric: hamster variable regions, human IgG4 S228P and human kappa constant regions; also called SEC1 (IgG4 S228P)
[4]
  Kd: 0.41 nM
[5]
  Kd: 3.6 nM
[6]
  binding result: no binding

From patent US20170340735A1 (published 2017)
